This is an account of results in PMC3119699, “Characterizing the Role of Cell-Wall β-1,3-Exoglucanase Xog1p in Candida albicans Adhesion by the Human Antimicrobial Peptide LL-37” (PLoS ONE, 2011).

Assay [1] addresses T1, Xog1p, cell-wall β-1,3-exoglucanase of C. albicans (endogenous) (C. albicans (endogenous in SC5314)) (UniProt P29717).
T1 sequence: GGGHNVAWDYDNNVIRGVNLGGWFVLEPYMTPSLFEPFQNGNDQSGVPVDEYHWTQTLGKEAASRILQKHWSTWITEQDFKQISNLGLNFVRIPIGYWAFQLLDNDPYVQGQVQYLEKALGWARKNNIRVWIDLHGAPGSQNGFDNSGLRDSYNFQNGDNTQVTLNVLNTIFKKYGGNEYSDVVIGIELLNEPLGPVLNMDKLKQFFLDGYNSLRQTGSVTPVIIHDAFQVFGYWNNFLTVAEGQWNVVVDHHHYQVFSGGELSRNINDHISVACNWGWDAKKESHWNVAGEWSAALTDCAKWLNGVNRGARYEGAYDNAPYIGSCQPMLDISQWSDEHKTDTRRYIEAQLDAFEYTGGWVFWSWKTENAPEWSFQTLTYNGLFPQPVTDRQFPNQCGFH

In assay [2] the target is T2, Xog1_(90–115) (residues 90–115 from Xog1p) (C. albicans).
T2 construct: Residues 90–115 of C. albicans cell-wall β-1,3-exoglucanase Xog1p; also called Xog1p_(90–115); source: synthetic peptide (MDBio, Inc.)
T2 peptide: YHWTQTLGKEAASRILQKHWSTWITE
The assay can be described thus: ELISA; Xog1_(90–115) (5 µg) coated on wells; BA-LL37 0.01–5 µg/ml in 0.1% TBST, room temperature 1 h; SA-HRP, A450. The note with it: both partners purified.

For assay [3], the target named is T3, soluble His-tagged recombinant Xog1p (rXog1p) (C. albicans, UniProt P29717 41-438).
T3 construct: An initiator Met comes from the NdeI site; No tag removal is described; also called full-length rXog1p; not shown: His tag (detected with anti-His6)
T3 sequence: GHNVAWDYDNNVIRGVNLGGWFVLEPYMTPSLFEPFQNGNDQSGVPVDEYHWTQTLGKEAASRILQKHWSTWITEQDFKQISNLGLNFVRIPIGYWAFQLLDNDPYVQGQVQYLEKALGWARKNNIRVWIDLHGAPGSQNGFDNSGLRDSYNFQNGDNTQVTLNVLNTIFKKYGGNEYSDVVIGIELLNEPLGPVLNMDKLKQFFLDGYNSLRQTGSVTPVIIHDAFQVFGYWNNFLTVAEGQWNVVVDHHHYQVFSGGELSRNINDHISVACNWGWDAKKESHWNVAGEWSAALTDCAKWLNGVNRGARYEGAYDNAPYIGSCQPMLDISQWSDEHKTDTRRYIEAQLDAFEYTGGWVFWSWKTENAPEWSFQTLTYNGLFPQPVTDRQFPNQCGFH
The assay can be described thus: pull-down; streptavidin-agarose, BA-LL37 (bait) and purified rXog1p in TBS, room temperature 2 h; six washes with TBS; Tricine SDS-PAGE, Coomassie Blue. The note with it: both partners purified.

No end group written: not given here.

B1: LL-37 (human cathelicidin antimicrobial peptide) (peptide)
peptide: LLGDFFRKSKEKIGKEFKRIVQRIKDFLRNLVPRTES
In assay [1], B1 showed an inhibition of C. albicans adhesion to polystyrene (XTT reduction) at 5 µg/ml (∼1.1 µM) LL-37 of 70%.

B2: biotinylated LL-37 (BA-LL37) (peptide)
peptide: B1 peptide
modifications: also: biotinylated (site not given here)
notes: LL-37, the mature 37-residue C-terminal peptide cut from human cathelicidin by proteinase-3; biotinylated; Detected or captured by its biotin (SA-HRP, SA-DTAF, streptavidin-agarose); source: synthetic peptide (MDBio, Inc.), 95% pure
Take B2: the binding result in assay [2] and in assay [3] was “binds” each time.
